*1 amine or outer side, *2 acyl side, *3 side chain or, on linkers, in order; H or OH if unused. Bridges are numbered along the chain shown (N, C = ends). Where no end group is shown, it is not given here. [ ]: non-standard residue; d: D form. TATA = O=C(CC[*:1])N1CN(C(=O)CC[*:2])CN(C(=O)CC[*:3])C1; 1Nal = N[C@@H](Cc1cccc2ccccc12)C(=O)O; 2Nal = N[C@@H](Cc1ccc2ccccc2c1)C(=O)O; NMehArg = CN[C@@H](CCCCNC(=N)N)C(=O)O; Hyp = O=C(O)[C@@H]1C[C@@H](O)CN1; NMeI = CC[C@H](C)[C@H](NC)C(=O)O; NMeT = CN[C@H](C(=O)O)[C@@H](C)O; dCya = N[C@H](CS(=O)(=O)O)C(=O)O; hArg = N=C(N)NCCCC[C@H](N)C(=O)O; NMeN = CN[C@@H](CC(N)=O)C(=O)O; Agb = N=C(N)NCC[C@H](N)C(=O)O
What follows are binders tested against T1, human Nectin-4 (human, UniProt Q96NY8 32-349) (assay: FP competition, tracer SEQ ID NO 217).
T1 construct: a Gly32-Ser349 FLAG construct is described only under the SPR assay; also called PVRL4
T1 sequence (looked up): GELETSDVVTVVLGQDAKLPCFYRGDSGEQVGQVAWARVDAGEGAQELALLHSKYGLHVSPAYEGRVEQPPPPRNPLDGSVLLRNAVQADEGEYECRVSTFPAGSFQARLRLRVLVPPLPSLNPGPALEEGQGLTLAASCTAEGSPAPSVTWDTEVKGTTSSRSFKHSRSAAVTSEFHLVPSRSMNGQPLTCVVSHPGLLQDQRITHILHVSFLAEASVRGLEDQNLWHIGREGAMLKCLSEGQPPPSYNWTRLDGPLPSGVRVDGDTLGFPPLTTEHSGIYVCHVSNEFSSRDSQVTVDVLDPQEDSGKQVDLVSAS
Method: Peptides were diluted to an appropriate concentration in assay buffer as described in the direct binding assay with a maximum of 5% DMSO, then serially diluted 1 in 2. […] Measurements were conducted as for the direct binding assay, however the gain was determined prior to the first measurement. Data analysis was in Systat Sigmaplot version 12.0 where the mP values were fit to a user defined cubic equation to generate a Ki value: […]

Question: With Ac-CP[1Nal][dD]CM[hArg]HWSTP[Hyp]WC (linker 1-5-15 via TATA) [BCY8125] as the binder, how does the Ki read?
Answer: Its Ki is 3.1 nM.

Question: Which Ki does the source give for Ac-CP[1Nal][dR]CM[hArg]NWSTP[Hyp]WC (linker 1-5-15 via TATA) [BCY8128] here?
Answer: The Ki was 2.2 nM.

Question: How did the Ki turn out when Ac-CP[1Nal][dR]CM[hArg]HWSTP[Hyp]WC (linker 1-5-15 via TATA) [BCY8129] was run?
Answer: The Ki was 3.1 nM.

Question: How did the Ki turn out when Ac-CP[1Nal][dD]CM[hArg]DWDTP[Hyp]WC (linker 1-5-15 via TATA) [BCY8174] was run?
Answer: Its Ki is 12.3 nM.

Question: Which Ki does the source give for Ac-CP[1Nal][dD]CM[hArg]DWTTP[Hyp]WC (linker 1-5-15 via TATA) [BCY8176] here?
Answer: Its Ki is 3.5 nM.

Question: Which Ki does the source give for Ac-CP[1Nal][dD]CM[hArg]DWSSP[Hyp]WC (linker 1-5-15 via TATA) [BCY8180] here?
Answer: Its Ki is 3 nM.

Question: Which Ki does the source give for Ac-CP[1Nal][dR]CM[hArg]DWDTP[Hyp]WC (linker 1-5-15 via TATA) [BCY8185] here?
Answer: The Ki was 26.1 nM.

Question: Ac-CP[1Nal][dR]CM[hArg]DWTTP[Hyp]WC (linker 1-5-15 via TATA) [BCY8187] was tested. Which Ki did it give?
Answer: The Ki was 5 nM.

Question: For Ac-CP[1Nal][dR]CM[hArg]DWSSP[Hyp]WC (linker 1-5-15 via TATA) [BCY8191], which Ki is on record?
Answer: Its Ki is 4.5 nM.

Question: Ac-CP[1Nal][dD]CL[hArg]DWSTP[Hyp]WC (linker 1-5-15 via TATA) [BCY8212] was tested. Which Ki did it give?
Answer: Its Ki is 3 nM.

Question: For Ac-CP[1Nal][dR]CL[hArg]DWSTP[Hyp]WC (linker 1-5-15 via TATA) [BCY8213], which Ki is on record?
Answer: The Ki was 3.5 nM.

Question: With Ac-CP[1Nal][dR]CL[hArg]HWSTP[Hyp]WC (linker 1-5-15 via TATA) [BCY8214] as the binder, how does the Ki read?
Answer: Its Ki is 6.3 nM.

Question: Which Ki does the source give for DSECPFGCMSGWSWPIWCA (linker 4-8-18 via TATA) [BCY3389] here?
Answer: The Ki was 99.8 nM.

Question: Ac-CPF[dD]CM[NMehArg]NWSTPIWC (linker 1-5-15 via TATA) [BCY8153] was tested. Which Ki did it give?
Answer: The Ki was 35 nM.

Question: For Ac-CPF[dD]CM[hArg][NMeN]WSTPIWC (linker 1-5-15 via TATA) [BCY8154], which Ki is on record?
Answer: The Ki was 8 nM.

Question: With Ac-CPF[dD]CM[hArg]NWS[NMeT]PIWC (linker 1-5-15 via TATA) [BCY8157] as the binder, how does the Ki read?
Answer: The Ki was 5 nM.

Question: Which Ki does the source give for Ac-CPF[dD]CM[hArg]NWSTP[NMeI]WC (linker 1-5-15 via TATA) [BCY8158] here?
Answer: Its Ki is 177 nM.

Question: With HDACPFGCMEGWSWPIWCA (linker 4-8-18 via TATA) [BCY3390] as the binder, how does the Ki read?
Answer: Its Ki is 302 nM.

Question: Which Ki does the source give for Ac-CP[1Nal][dCya]CM[hArg]DWSTP[Hyp]WC (linker 1-5-15 via TATA) [BCY8163] here?
Answer: Its Ki is 3 nM.

Question: Which Ki does the source give for Ac-CP[1Nal][dD]CMPDWSTP[Hyp]WC (linker 1-5-15 via TATA) [BCY8182] here?
Answer: Its Ki is 2 nM.

Question: With MDTCPFGCMEDWSWPIWCA (linker 4-8-18 via TATA) [BCY3391] as the binder, how does the Ki read?
Answer: Its Ki is 198 nM.

Question: Ac-CP[1Nal][dR]CM[hArg]DWSTP[Hyp]WC (linker 1-5-15 via TATA) [BCY8184] was tested. Which Ki did it give?
Answer: The Ki was 3.2 nM.

Question: Ac-CP[2Nal][dR]CM[hArg]DWSTP[Hyp]WC (linker 1-5-15 via TATA) [BCY8186] was tested. Which Ki did it give?
Answer: The Ki was 6 nM.

Question: For Ac-CP[1Nal][dR]CM[Agb]DWSTP[Hyp]WC (linker 1-5-15 via TATA) [BCY8192], which Ki is on record?
Answer: The Ki was 5 nM.

Question: With Ac-CP[1Nal][dR]CMPDWSTP[Hyp]WC (linker 1-5-15 via TATA) [BCY8193] as the binder, how does the Ki read?
Answer: Its Ki is 3 nM.

Question: DPGCPFGCMPGWSWPIWCA (linker 4-8-18 via TATA) [BCY3392] was tested. Which Ki did it give?
Answer: The Ki was 36.3 nM.

Question: Ac-CP[1Nal][dR]CM[Hyp]DWSTP[Hyp]WC (linker 1-5-15 via TATA) [BCY8194] was tested. Which Ki did it give?
Answer: The Ki was 3.5 nM.

Question: With HDSCPFGCMKSWSWPIWCA (linker 4-8-18 via TATA) [BCY3393] as the binder, how does the Ki read?
Answer: The Ki was 173 nM.

Question: Which Ki does the source give for ACPFGCMKTWSWPIWCTDK (linker 2-6-16 via TATA) [BCY3394] here?
Answer: Its Ki is 102 nM.

Question: How did the Ki turn out when ACPFGCMKGWSWPIWCLKD (linker 2-6-16 via TATA) [BCY3395] was run?
Answer: Its Ki is 17.4 nM.

Question: With ACPFGCQEHWSWPIWCTTA (linker 2-6-16 via TATA) [BCY3396] as the binder, how does the Ki read?
Answer: Its Ki is 102 nM.

Question: Which Ki does the source give for ACPFGCIKSWSWPIWCQME (linker 2-6-16 via TATA) [BCY3397] here?
Answer: The Ki was 33.2 nM.

Question: How did the Ki turn out when ACPFGCQEDWSWPIWCLSE (linker 2-6-16 via TATA) [BCY3398] was run?
Answer: Its Ki is 164 nM.

Question: Which Ki does the source give for ACPFGCMSDWSWPIWCSTD (linker 2-6-16 via TATA) [BCY3399] here?
Answer: The Ki was 410 nM.

Question: ACWPLDDYWCPRICPQA (linker 2-10-14 via TATA) [BCY3401] was tested. Which Ki did it give?
Answer: The Ki was 154 nM.

Question: With ACPFGCM[hArg]NWSWPIWCTNK (linker 2-6-16 via TATA) [BCY7265] as the binder, how does the Ki read?
Answer: The Ki was 38.3 nM.

Question: With ACPFGCMXNWSWPIWCTNK (core CPFGCM[K(Ac)]NWSWPIWC; TATA on 3 Cys) [BCY7266] as the binder, how does the Ki read?
Answer: Its Ki is 41 nM.

Question: Which Ki does the source give for [dH]DSCPFGCMKSWSWPIWCA (linker 4-8-18 via TATA) [BCY7272] here?
Answer: Its Ki is 41 nM.

Question: With HDSCPFGCMK(Ac)SWSWPIWCA (linker 4-8-18 via TATA) [BCY7273] as the binder, how does the Ki read?
Answer: Its Ki is 84 nM.
